# The nanobody polyreactivity screen of Harvey et al. (2022)
# Experiment: yeast display, Sf9 membrane polyspecificity reagent, FACS + sequencing; frameworks hold sequencing errors
# How it was run: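 Nanobodies from a synthetic yeast display library (Saccharomyces cerevisiae BJ5465), induced 36–48 hours with galactose, were stained 1 hour at 4 °C with 10% biotinylated, detergent-solubilized Sf9 membrane reagent, enriched on streptavidin microbeads, then FACS-sorted. Anti-HA (expression) and streptavidin (reagent binding) fluorescence set low and high (top ~1%) gates. Polyreactivity labels come from the gate of origin. Genes were colony-PCR amplified, MiSeq 2 × 250 sequenced and filtered by CDR length.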
row,Sequence,polyreactivity (PSR sort gate)
1,QVQLVESGGGVVQAGGSLRLSCAASGYTFLPYAMGWYRQAPGNARELVAAITVRGGRTYDADAVKGRFTISRHNAKKTVYLQMNSLKPEDTAVYYCHTDAYRLGYDYWGPGTQVTVSS,high polyreactivity
2,QVQLVESGGGVVQAGGSLRLSCAASRRTFTYYDMGWYRQAPGKERELVAGITARGGSTYADSVKGRFTISRDNAKNTVYLQMNSLKPEDTAVYYCAADLYTSLDSTYVYWGQGTQVTLSS,low polyreactivity
3,QVQLVESGGGVVQAGGSLRLSCAATGRTFWRYAMGGYIQAPGKERELVASISVSGGTTYYAYSVKGRFTISRDHAKNTVYLQMNSLKPEDTAVYYCAARYGSIYSILYYRFVYWGQGTQVTVSS,high polyreactivity
4,QVQLVESGGGVVQAGGSLRLSCAAYRSIFLFKAMGWYRQATGKERELVAAINRDDSTYYADSVKGRFTISRDNAKNTVYLQMNSLKPEDTAVYYCAAPVLHASYGYGYWGQGTQVTVSS,low polyreactivity
5,QVQLVESGGGVVQAGGSLRLTCAASGIIFYRYSMGWYSQAPGKERELVAAISIGGGSTYYADSVKVRFTISRYNAKNTVYLEMNSLKPEDTAVYYCAADTYNYVGYNGHDYWGQGTQVTVSS,low polyreactivity
6,QVQLVESGGGVVQAGGSLRVSCAASGRIFAPYAMGWYRQAPGKERELVAAISWRGSSTYYADSVKGRFTISRDNAKNTVSLQMNSLKPEDTAVYYCAAPSSKYWGQGTQVTVSS,low polyreactivity
7,QVQLVESGGGVVQAGGTLLLICAASGSTFIVNAMVWYRQAPRKERELVAAITGSGGNTYYADSVKGRFTISRDNAKNTVYLQINTLKPEDTAVYYCAAETYYGRIYWYIRDYWGQGTQVSVSS,low polyreactivity
8,QVQLVESGGGVVQAGVSLRLSCAASGFTSHGYAKGWYRQAPGQERELVAAIDSVGSTYYADSVKGRFTISRDNSKNTVYLQMNSLKQEDTAVYYCAARRKRVSFYQEYDYWGQGTQVTVSS,low polyreactivity
9,QVQLVESGGLIVQAGRSIRLTCAASGSIFYSYPMGWYRQAPGKERELVAAIRFSRGTTYYADSVKGRFTISRDNAKNTVYLQMNSLKPEDTAVYYCAATLSSYSYLFEYDYWGQCTQVTVSS,low polyreactivity
10,QVQLVESGGLLVQAGGSLRLSCAASGFNFYNYAMGWYRQAPGKERELVAAISKRGGRTYYADSVKGRFTISRDNAKITVYLQMNRLKPVDTAVYYCNTDAVRPYHVAWYDYWGQGTQVTVSS,high polyreactivity
11,QVQLVESGGLLVQAGGSLRLSCAASGRIFNYNAMGWYRQAPGKERELVAAIDSGGRTNYADSVKARFTISRDNAKNTGYLQMNSLKPEDTAVYYCNREAAHGSLRWTEMEYWGQGTQVTVSS,low polyreactivity
12,QVQLVESGGLLVQAGGSLRLSCAASGRISPKNAMGWYRQAPGKERELVATIRKIGGRTYYADSVKGRFTISRDNAKNTVYLQMNSLKTEDTAVYYCATDFAPSYYPDRFDYWGQGTQVTVSS,low polyreactivity
13,QVQLVESGGLLVQAGGSLSLSCAASGRTFTPNAMGWYRQAPGKEREFVAAITYYGGSTRYADSVKGRFTISRDNAKNTVYLQMNSLIPEDTAVYYCAADVHYRYFYSWSSYSGYGYWGQGTQVTVSS,low polyreactivity
14,QVQLVESGGRIVQAGGSLRLSCAASGSTFYPYAMGWSRPAPGKEGQFVAAITWSGGSTYADSVKGRFTISRDNAKNTVYLQMNSLKPEDTAVYYCAAQPFVIEGGYRGDYWGQGTQETVSS,low polyreactivity
15,QVQLVESGGRLFQAGGSLRLICAASGSIFVYNTKGWYRQSPGKERELVASISYSGGPTYYADSVKGRFTISRDNAKNTVYLQMKSLNPEDTAVYYCAADVRQRGIYGPGPHYYWGQGTQVTVSS,high polyreactivity
16,QVQLVESGGRLVKAGGSLRLSCAASGRNFFYYTMAWYRQAPGKERELVATISWRGGSTYYADSVKGRFTFSRDNAKNTDYLLMNSLKPEETAVYYCAARYRCRYDSWGQGTQVTVSS,high polyreactivity

row,Sequence,polyreactivity (PSR sort gate)
1,QVQLVESGGRLVQAGGRLRLSCAASGNIFYGYAMGWYRQAPGKERELVARINWSGSRTYYADTVKGRFTISRDNAKNTVYLQMNSLNPEDTAVYYCNTSTSRVPGNGDYWGQGTQVTVSS,high polyreactivity
2,QVQLVESGGRLVQAGGSHRLSCAASGFIFYDYAMGWYIQAPGKERELVAVITRGGSTYYADSVKGRFTISRDNAKNTVYLLMNSLKPEDTAVYYCAAYWFTPGFTFDYWGQGTQVTVSS,low polyreactivity
3,QVQLVESGGRLVQAGGSHRLSCAASGRTFNVYAMGWYRQAPGKERELVASISSSDTTNYADSVKGRFTISRDNAKNTVYLQMNSLKPEDTAVYYCAADYTPDLLSKVDYCGQGTQVTVSS,low polyreactivity
4,QVQLVESGGRLVQAGGSHRLSCAASGRTFVENAMGWYRQAPGQEREFVAAISSSGDSTYYADSVKGRFTISRDNEKYTVYLKMNSLNPEDTAVYYCAARVYSRGLFYWGEGTQVTVSS,low polyreactivity
5,QVQLVESGGRLVQAGGSIRLSCAASGRIFTDNAMGWYRQAPGKERELVAAISWDGSSTSYADSVKGRFTISRDNAKNTVYLQMNSLQPEDTAVYYCAASGVGTNHYGYWNESDYWGQGTQVTVSS,low polyreactivity
6,QVQLVESGGRLVQAGGSIRLSCAASGRTFYNNAMGWYRQAPGKERELVAAISSGGSTYYADSVKGRFTISRDNAKNTVYLQMNSLKPEDTAVYYCNVRRGGWGYRYYYWGQGNQVTVSS,high polyreactivity
7,QVQLVESGGRLVQAGGSLLLSCAASGRIFRLYAMGWNTQAPGKERQLVASISSTGRTNYADSVKGRFTISRDNAKNTVYLQMNCLKPEDTAVYYCNAAVIYRYSQWDYGYWGLGTQVTVSS,high polyreactivity
8,QVQLVESGGRLVQAGGSLLLSCAASGSTIGYYDMGWYRQAPGKERELVASITKSGGTTRYADSVKGRFTISRDNAKNTVYLQMNSLKPEDTAVYYCNADRSLLYSRKIEYDYWGQGTQVTVRS,low polyreactivity
9,QVQLVESGGRLVQAGGSLRISCAASGRTFRYYAKGWYRQAPGKERELVAAISSRGTRTYYADSVKGRFTISRDNAKNTGYLQMNSLKPEDTAVYYCATRYYQELAYDFWGQGTQVIVSS,high polyreactivity
10,QVQLVESGGRLVQAGGSLRLICAASGLIFYHNAMGWYRQAPGKERELVAAITASGGSTYYADSVKGRFTISRDNAKNTVYLQMNSLKPEDTAVYSCSADGPLDSDLDYWGQGTQVTVSS,low polyreactivity
11,QVQLVESGGRLVQAGGSLRLRCAASGFTFGYNDMGWYRPAPGKERELLAGIRSGDDTNYADSVKGRFTISRDNAKNTDYLQMNSLKPEDTAVYYCAADVVNIATAEYDYCGQGTQVTVSS,low polyreactivity
12,QVQLVESGGRLVQAGGSLRLSCAASGFIFAVYAMGSYRQAPGKECELVAAISRSSGSTYYADSVKGRFTISRHNAKNTVYLQMNSLKPEDTAVYYCAAVFLYRGYAQYDYWGQGTQVTVSS,high polyreactivity
13,QVQLVESGGRLVQAGGSLRLSCAASGFIFQYYTMGWYRQAPGKERELVAGISRSGGSTYYADSVKGRFTISRDNAKNTVYLQMNSLKPEDTAVYYCAAKIRTSDMGYWGQGTQVTVSS,high polyreactivity
14,QVQLVESGGRLVQAGGSLRLSCAASGFTFKYYAMGWYTQAPGKERELVAAIRRSAGSTNYADSVKGRFTISRDNAKNTVYLQMNSLKPEDTAVYYCNTVGTRQPMDYWGQGTQVTVSS,high polyreactivity
15,QVQLVESGGRLVQAGGSLRLSCAASGGIFPPNAKGWYRQAPGKERELVASISSDGSTNYADSVKGRFTISRDNAKNTVYLQMNSLKPEDTAVYYCAADSTTSWARLHVRRFYYWGQGTQVTVSS,low polyreactivity
16,QVQLVESGGRLVQAGGSLRLSCAASGISFNYYAMGWYRQAPGKEREMVAGITSGGSTYYADSVKGRFTISRDNAKNTVYLQMNSLKTEDTAVYYCATRVRDGSQTPYRRGHSYDYWGQGTQVTVSS,high polyreactivity
